From paper PMC8967717 (Nature, 2022)
Positions count from the first letter of the chain named.

B1: XGv338 (antibody, V domains shown)
VH: EVQLVESGGGLVQPGGSLRLSCAASGFPFITYWMSWVRQTPGKGLEWVANIKEDGSEKNYVDSVKGRFTVSRDNAENSLYLRMNSLRIEDTAVYYCAREIRRTIPTSGMDVWGQGTTVTVSS
VL: SYELTQPPSVSVSPGQTARITCTGDALPKQYAYWYQQKPGQAPVLIISKDNERASGIPERISGSRSGTTVTLTISGVQAEDEADYYCQSADSSASYSYVFGTGTKVTVL
B2: XGv345 (antibody, V domains shown)
VH: QVQLQESGPGLVKPSQTLSLTCTVSGGSIRSGSYYWSWIRQPAGKGLEWIGRVYTSGSTNYNPSLKTRVTISLETSKNHFSLKLSSVTAADTAVYYCARGEWEEDFALWGRGTLVTVSS
VL: DIQMTQSPSSLSASVGDRVTITCRASQSIASHLNWYQQKPGKAPKLLIYGASTLQSGVPSRFSGSGSGTAFTLTISSVQPEDFATYYCQQSYSAITFGQGTRLEIK
B3: XGv402 (antibody, V domains shown)
VH: QVQLVESGGGVVQPGRSLRLSCAASGFTFNNYAMHWVRQAPGKGLEWVAVISYDGSNEFYLDSVKGRFAISRDNSKNTLYLQTNSLRGEDTAVYYCARESRRGADYWGQGTLVTVSS
VL: DIQMTQSPSSLSASVGDRVTITCRASQIISNYLNWYQQKPGKAPKLLIYAASSLQSGVPSRFSGSGSGTDFTLTISSLQPEDSATYYCQQSFSPLWTFGPGTKVEIK
B4: XGv420 (antibody, V domains shown)
VH: QVQLQESGPGLVKPSGTLSLTCAVSGGSINSNNWWSWVRQPPGKGLEWIGEIYHNGNTNYNPSLKSRVTISVDTSKNQFSLRLSSVTAADTAVYYCARGDSLDWFDPWGQGTLVTVSS
VL: QSALTQPASVSGSPGQSITISCTGTSSDVGSYNYVSWYQQLPGKAPKLMIYDVSNRPSGVSNRFSGSKSGNTASLTISGLQAEDEADYYCSSYTSSSTLVFGTGTKVTVL
B5: XGv285 (antibody, V domains shown)
VH: QVQLVQSGAEVKKPGASMKVSCKASGYTFISYYMHWVRQAPGQELEWMGIINPSGGSTSYAQKFQGRVTMTRDTSTSTVYMELRSLRSEDTAVYYCARAEGSSWLGWFDPWGQGTLVTVSS
VL: QSVLTQPPSASGTPGQRVTISCSGSSSNIGSNLVYWYQHLPGTAPKLLIYKNTQRPSGVPDRFSGSKSGTSASLAISGLRSDDEGDYYCAAWDDGLSGSGWVFGGGTKVT
B6: XGv294 (antibody, V domains shown)
VH: QVQLVQSGAEVKKPGASVKVSCKASGYTFTRHYIHWVRQAPGQGLEWMGIINPSGGGASYAQKFQGRVTMTRDTSTSTVYMEVSSLRYEDTAVYYCARAEGGSWLGWFDPWGQGTLVTVSS
VL: B5 VL with S25G, S31N, L33Y, H39Q, K51G, T53N, D82E, G85A, Y88H, V109L
B7: XGv290 (antibody, V domains shown)
VH: B5 VH with M18V, I30K, S31N, Y33H, E44G, S57G, T58S, R72G, R84S
VL: B5 VL with L33Y, H39Q, L47V, K51R, T53N, D82E, G85A, D86E, V102L, V109L
B8: XGv286 (antibody, V domains shown)
VH: QVQLVQSGAEVKKPGASVKVSCKASGYTFSSYYIHWVRQAPGQGPEWMAIINPGDGGASYAQKFQGRVTLTRDTSTSTLYMELSSLRSEDTAVYYCARAEGSSWLGWFDPWGQGTLVTVSS
VL: B5 VL with L33Y, H39Q, K51R, T53N, K67R, D82E, G85A, V109L
B9: XGv387 (antibody, V domains shown)
VH: EVQLVESGGGLIQPGGSLRLSCAASGVIVSSNYMSWVRQAPGKGLEWVSVMYSGGSTFYADSVKGRFTISRDNSKNTLYLQMNRLRAEDTAVYFCARGDGGSYLGGAFDIWGQGTMVTVSS
VL: DIQMTQSPSSLSASVGDRVTLTCRASQSISTYLNWYQQKPGKAPKLLIYAASSLQSGVPSRFSGSGSGTDFTLTINSLQPEDFATYYCQQSYSLPALTFGGGTKVEIK
B10: XGv293 (antibody, V domains shown)
VH: QVQLVQSGAEVKKPGASVKVSCKASGYTFTSYFLHWVRQAPGQGLEWLGIIDPSGGASYAQKFQGRVTMTSDTSTSTVYMDLGSLRSEDTAVYYCARAEGTSWLGWFDPWGQGSLVTVSS
VL: QSVLTQPPSASGTPGQRVTISCSGSSSNIGTNYVYWYQQLPGTAPKLLIYRNYQRPSGVPDRFSGSKSGTSASLAISGLRSEDEAEYYCAAWDNGLSGSGWVFGGGTKLTVL
B11: XGv297 (antibody, V domains shown)
VH: QVQLVQSGAEVKKPGASVKVSCRTSGYTFTAYYIHWVRQVPGQGLEWMGIINPSGGGASYAQTFQGRVSLTRDTSTRTVYMDLSSLISEDTAVYYCARAEGTHWLGWFDPWGQGTLVTVSS
VL: B10 VL with G30A, T31S, Y33S, Y53N, K67T, E86D, N94D, G95N
B12: XGv295 (antibody, V domains shown)
VH: QVQLVQSGAEVKKPGASVKVSCKASGYIFTNYYIHWVRQAPGQGLEWMAIFNPSAATASYAQKFQGRVTMTRDTSTTTVYMELRSLRFDDTAVYYCARAEGTSWLGWFDPWGQGTLVTVSS
VL: B10 VL with I20V, T31S, N32H, Y33D, R51K, Y53D, K67T, E86D, N94D
B13: XGv296 (antibody, V domains shown)
VH: QVQLVQSGAEVKKPGASVKISCKASGYTFTDHYVHWVRQAPGQGLEWMAIVNPSDGSTSYAQKFQGRVTMTSDTSTTTIYMELSSLRSGDTAVYYCARAEGSSWLGWFDPWGQGTQVTVSS
VL: QSVLTQPPSASGTPGQRVTISCSGSSSNIGGHYVYWYQQFPGTAPKLLIYRSNQRPSGVPDRFSGSKSGTSASLAISGLRSEDEADYFCAAWDDGLRGSGWVFGGGTTLTV
B14: XGv302 (antibody, V domains shown)
VH: EVQLVESGGGLIQPGGSLRLSCAASGITVSSNYMNWVRQAPGKGLEWVSVIYAGGTTFYADSVKGRFTISRDSSKNTLSLQMNSLRVEDTAVYYCVRNLVVYGMDVWGQGTTVTVSS
VL: DIQLTQSPSSLSASVGDRVTITCRASQGISSDLAWYQQKPGKAPKLLIYGASTLQSGVPSRFSGSGSGAHFTLTINSLQPEDFAIYYCQQLNSEFLTFGGGTKVEIK
B15: XGv304 (antibody, V domains shown)
VH: B14 VH with A23E, G26E, N35R, V50L, T56S, S73N, S79Y, V96A, N98D, V100M
VL: B14 VL with D32Y, K45N, A69T, H70D, N76S, I85T, Q90H, E94D, F95P
B16: XGv303 (antibody, V domains shown)
VH: B14 VH with Q13R, N35T, A53S, S73N, S79Y, V87A, V96A
VL: B14 VL with S56G, A69T, H70D, N76S, S77R, F83C
B17: XGv287 (antibody, V domains shown)
VH: QVQLVQSGAEVKKPGASVKVSCKTSGYTFTTYYMHWVRQAPGQGLEWMGIINPSDGSTNYAQKFQDRVTLTKDTSTSTFYMELSSLTSEDTAKYYCARAEGSSWLGWFDPWGQGTLVTVSS
VL: QSVLTQPPSASGTPGQRVTISCSGSNSNIGNHFVYWYQQLPGKAPKLLIYRNNQRPSGVPDRFSGSKSGTSASLAISGLRSEDEADYYCASWNDGLSASGWVFGGGTKLTV
B18: XGv288 (antibody, V domains shown)
VH: B8 VH with S30T, S31N, P45L, G54S, D55G, Q62H, L70M, S84I, E89D, V117I
VL: B13 VL with G31S, H32N, F40L, S52N, N53A, F88Y, R97S, T108K
B19: XGv291 (antibody, V domains shown)
VH: QVQLVQSGAEVKKPGASVEISCKASGYSFTKYYVHWVRQAPGQGLEWMGIVNPNGGASYAQKFQGRVTMTSDTSTTTFYMEVSGLRSDDTAVYYCARAEGSSWLGWFDPWGQGTLVTVSS
VL: B17 VL with N26T, N31S, H32K, F33D, K43T, V59A, G65A, S91V, N93D, V102L
B20: XGv265 (antibody, V domains shown)
VH: QITLKESGPTLVKPTQTLTLTCNFSGFSLNTYGVGVGWIRQPPGKALEWLALIYWDGDERYGPFFKNKVTIAKDTSKNQVVLTMTNMDPVDTATYYCARHLIPTIFDYWGQGTLVTVSS
VL: QSALTQPASVSGSPGQSITISCTGTSSDVGGSNYVSWYQHHPDRAPKLLIYEVTNRPSGVSNRFSGSKSANTASLTISGLQAEDEADYYCSSYTTTSTHILFGGGTKLTV
B21: XGv347 (antibody, V domains shown)
VH: QMQLVQSGPEVKKPGTSVKVSCKASGFTFTDVSSLQWVRQARGQRLEWIGWTVVGTGNTNYAPRFQERVTITTDKSTSTAYMELSSLRSEDTAVYYCAAPFCSETSCSDGFDLWGQGTKVTVSS
VL: EIVLTQSPGTLSLSPGDRATLSCRASQSVRISYLAWYQQKPGQAPRLLISGSSSRATGIPDRFSASGSGTDFALTISRLEPEDFAVYYCQQYDNSPWTFGQGTKVEVK

Molecular target: SARS-CoV-2 wild-type spike (S) protein (SARS-CoV-2, WT (MN908947), UniProt P0DTC2)
Experiment: not given
Details: not given

Question: Does B1 bind?
Answer: binds

Question: Does B2 bind?
Answer: binds

Question: Does B3 bind?
Answer: binds

Question: Does B4 bind?
Answer: binds

Question: Does B5 bind?
Answer: binds

Question: Does B6 bind?
Answer: binds

Question: Does B7 bind?
Answer: binds

Question: Does B8 bind?
Answer: binds

Question: Does B9 bind?
Answer: binds

Question: Does B10 bind?
Answer: binds

Question: Does B11 bind?
Answer: binds

Question: Does B12 bind?
Answer: binds

Question: Does B13 bind?
Answer: binds

Question: Does B14 bind?
Answer: binds

Question: Does B15 bind?
Answer: binds

Question: Does B16 bind?
Answer: binds

Question: Does B17 bind?
Answer: binds

Question: Does B18 bind?
Answer: binds

Question: Does B19 bind?
Answer: binds

Molecular target: T1, SARS-CoV-2 wild-type spike receptor-binding domain (SARS-CoV-2, WT (MN908947), UniProt P0DTC2)
Experiment: not given
Details: not given

Question: Does B1 bind?
Answer: binds

Question: Does B2 bind?
Answer: binds

Question: Does B3 bind?
Answer: binds

Question: Does B4 bind?
Answer: binds

Question: Does B5 bind?
Answer: binds

Question: Does B6 bind?
Answer: binds

Question: Does B7 bind?
Answer: binds

Question: Does B8 bind?
Answer: binds

Question: Does B9 bind?
Answer: binds

Question: Does B10 bind?
Answer: binds

Question: Does B11 bind?
Answer: binds

Question: Does B12 bind?
Answer: binds

Question: Does B13 bind?
Answer: binds

Question: Does B14 bind?
Answer: binds

Question: Does B15 bind?
Answer: binds

Question: Does B16 bind?
Answer: binds

Question: Does B17 bind?
Answer: binds

Question: Does B18 bind?
Answer: binds

Question: Does B19 bind?
Answer: binds

Molecular target: T1, SARS-CoV-2 wild-type spike …
Experiment: BLI
Details: both partners purified

Question: With B20 as the binder, how does the Kd read?
Answer: 0.59 nM

Question: For B21, which Kd is on record?
Answer: 0.0814 nM

Molecular target: SARS-CoV-2 wild-type spike N-terminal domain (SARS-CoV-2, WT (MN908947), UniProt P0DTC2)
Experiment: ELISA
Details: both partners purified

Question: Does B21 bind?
Answer: no binding
